In paper PMC6792133:

What was measured:
[1] = target: NbPI4KII-mGFP (Nicotiana benthamiana); assay: FRET or BRET; FRET in agroinfiltrated N. benthamiana leaf epidermal cells, 3 dpi; mGFP donor, DsRed acceptor; Olympus FluoView FV1000
[2] = target: NbPI4KII-mGFP (Nicotiana benthamiana)
[3] = target: Capsicum annuum phosphatidylinositol 4-kinase type II (CaPI4KII), yeast two-hybrid fusion (Capsicum annuum)
[4] = target: NbPI4KII-mGFP (Nicotiana benthamiana); remark: listed apart in the source

Substance | FRET efficiency [1] | percentage of cells in which NbPI4KII-mGFP was redirected into the nucleus when co-expressed with Rep181-361-DsRed (N = 17) [2] | percentage of cells with CaPI4KII-mGFP restricted to the nucleus when co-expressed with Rep181-361-DsRed [3] | percentage of cells with NbPI4KII-mGFP only inside the nucleus when co-expressed with Rep-DsRed (N. benthamiana epidermis, N = 19) [4] | percentage of cells with NbPI4KII-mGFP exclusively inside the nucleus when co-expressed with Rep1-180-DsRed (N = 16) [2] | percentage of cells with CaPI4KII-mGFP restricted to the nucleus when co-expressed with Rep1-180-DsRed [3]
ChiLCV Rep181-361-DsRed (domain or fragment) | 76% | 78% | 41% | – | – | –
ChiLCV Rep1-120-DsRed (domain or fragment) | 72% | – | – | – | – | –
ChiLCV Rep-DsRed (natural protein) | 47% | – | – | 63% | – | –
ChiLCV Rep1-180-DsRed (domain or fragment) | 43% | – | – | – | 87% | 61%
